In patent publication US20210363257A1 (Pieris, published 2021):

How the values were obtained:
[1] = biological target: T1, huPD-L1-His (human PD-L1 with a C-terminal polyhistidine tag) (human, UniProt Q9NZQ7 19-239); assay: dual-binding ELISA, huPD-L1-His coated, binder titrated, detection with biotinylated huCD137-His
T1 construct: Bought; also called biotinylated huPD-L1-His
Experimental: (§1) Recombinant huPD-L1-His (R&D Systems) in PBS (1 μg/mL) was coated overnight on microtiter plates at 4° C. The plates were washed five times after each incubation step with 100 μL PBS-0.05% T. The plates were blocked with 2% BSA (w/v) in PBS-0.1% T for 1 h at room temperature and subsequently washed again. Different concentrations of tested fusion proteins were added to the wells and incubated for 1 h at room temperature, followed by a wash step. […] After washing, a 1:5000 dilution of ExtrAvidin-HRP (Sigma-Aldrich) in PBS-0.1% T-2% BSA was added to the wells and incubated for 1 h. After an additional wash step, fluorogenic HRP substrate (QuantaBlu, Thermo) was added to each well, and the fluorescence intensity was detected using a fluorescence microplate reader.

[2] = biological target: T2, human CD137 expressed on cells (human, UniProt Q07011 24-255); assay: flow cytometry, Flp-In-CHO::huCD137 cells
T2 construct: whole, on cells; also called Flp-In-CHO::huCD137; NFκB-luc2/CD137 Jurkat cells
Experimental: (§2) The geometric means of the fluorescence intensity were used to calculate EC₅₀ values using nonlinear regression (shared bottom, SLOPE=1).
(§3) 5×10⁴ cells per well were incubated for 1 h in ice-cold PBS containing 5% fetal calf serum (PBS-FCS). A dilution series of the fusion proteins and control antibodies were added to the cells and incubated for 1 h on ice. Cells were washed twice with PBS and then incubated with a goat anti-hIgG Alexa647-labeled antibody for 30 min on ice. Cells were subsequently washed and analyzed using iQue Flow cytometer (Intellicyte Screener). Mean geometric fluorescent signals were plotted and fitted with Graphpad software using nonlinear regression (shared bottom, SLOPE=1).

[3] = biological target: T3, huCD137-His (human CD137 with a C-terminal polyhistidine tag) (human, UniProt Q07011 24-186); assay: dual-binding ELISA, huCD137-His coated, binder titrated, detection with biotinylated huPD-L1-His
T3 construct: Bought; also called huCD137-His-Bio

[4] = biological target: T1, huPD-L1-His (human PD-L1 with a …); assay: SPR (Biacore), binder captured by anti-human IgG Fc, huPD-L1-His in solution, 25 C, 1:1 model
Experimental: (§4) The binding kinetics and affinity of exemplary fusion proteins to huPD-L1-His or huCD137-His (human PD-L1 or human CD137 with a C-terminal polyhistidine tag, R&D Systems) were determined by surface plasmon resonance (SPR) using a Biacore 8K or a Biacore T200 (GE Healthcare).
(§5) The anti-human IgG Fc antibody (GE Healthcare) was immobilized on a CM5 sensor chip using standard amine chemistry: the carboxyl groups on the chip were activated using 1-ethyl-3-(3-dimethylaminopropyl)-carbodiimide (EDC) and N-hydroxysuccinimide (NHS). Subsequently, anti-human IgG Fc antibody solution (GE Healthcare) at a concentration of 25 μg/mL in 10 mM sodium acetate (pH 5.0) was applied at a flow rate of 5 μL/min until an immobilization level of 6000-10000 resonance units (RU) was achieved. Residual non-reacted NHS-esters were blocked by passing a solution of 1M ethanolamine across the surface. The reference channel was treated in an analogous manner. […] After each capture step, the needle was washed.
(§6) Double referencing was used and the 1:1 binding model was used to fit the raw data.

[5] = biological target: T3, huCD137-His (human CD137 with a …); assay: SPR (Biacore), binder captured by anti-human IgG Fc, huCD137-His in solution, 25 C, 1:1 model
Experimental: as §4, §5, §6

[6] = biological target: T4, cynomolgus PD-L1 expressed on cells (cynomolgus); assay: flow cytometry, Flp-In-CHO::cynoPDL-1 cells
T4 construct: whole, on cells; also called Flp-In-CHO::cynoPDL-1
Experimental: as §2, §3

[7] = biological target: T5, cynomolgus CD137 expressed on cells (cynomolgus, UniProt A9YYE7 24-254); assay: flow cytometry, Flp-In-CHO::cynoCD137 cells
T5 construct: also called Flp-In-CHO::cynoCD137
Experimental: as §2, §3

[8] = biological target: T2, human CD137 expressed on cells; assay: cell-based or functional assay
[9] = biological target: T1, huPD-L1-His (human PD-L1 with a …); assay: dual-binding ELISA, huPD-L1-His coated, binder titrated, detection with biotinylated huCD137-His; PD-L1 capture, CD137 detection (simultaneous binding of both targets)
Experimental: as §1

[10] = biological target: human PD-L1 expressed on cells (human, UniProt Q9NZQ7 19-290); assay: cell-based or functional assay
Chain of human PD-L1 expressed on cells (Q9NZQ7 19-290): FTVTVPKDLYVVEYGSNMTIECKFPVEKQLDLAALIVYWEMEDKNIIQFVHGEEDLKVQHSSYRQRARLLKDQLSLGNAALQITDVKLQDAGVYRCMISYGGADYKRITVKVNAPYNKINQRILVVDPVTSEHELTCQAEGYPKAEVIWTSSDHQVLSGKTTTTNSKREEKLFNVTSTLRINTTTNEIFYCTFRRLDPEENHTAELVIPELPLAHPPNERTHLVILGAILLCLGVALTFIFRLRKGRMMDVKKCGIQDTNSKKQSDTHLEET

T2 sequence (Q07011 24-255): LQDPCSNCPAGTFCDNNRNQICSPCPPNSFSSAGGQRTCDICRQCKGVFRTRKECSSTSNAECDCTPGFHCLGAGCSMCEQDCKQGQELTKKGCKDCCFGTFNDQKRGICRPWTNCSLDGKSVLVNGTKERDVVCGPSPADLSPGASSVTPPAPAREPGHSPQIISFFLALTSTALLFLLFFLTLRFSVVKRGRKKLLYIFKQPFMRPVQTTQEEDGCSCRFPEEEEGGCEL
T1 sequence (Q9NZQ7 19-239 limits assumed): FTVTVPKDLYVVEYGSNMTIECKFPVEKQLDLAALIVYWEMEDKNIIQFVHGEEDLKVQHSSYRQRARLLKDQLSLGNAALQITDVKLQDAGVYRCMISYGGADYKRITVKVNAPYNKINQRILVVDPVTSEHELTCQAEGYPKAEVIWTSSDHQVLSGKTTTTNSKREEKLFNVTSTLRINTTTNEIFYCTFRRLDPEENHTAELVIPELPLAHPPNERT
T3 sequence (Q07011 24-186 limits assumed): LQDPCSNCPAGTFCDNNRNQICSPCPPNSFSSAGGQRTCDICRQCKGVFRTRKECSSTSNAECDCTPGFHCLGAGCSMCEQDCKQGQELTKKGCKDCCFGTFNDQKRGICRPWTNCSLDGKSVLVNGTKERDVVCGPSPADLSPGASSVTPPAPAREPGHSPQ
T5 sequence (A9YYE7 entry or part of it limits assumed): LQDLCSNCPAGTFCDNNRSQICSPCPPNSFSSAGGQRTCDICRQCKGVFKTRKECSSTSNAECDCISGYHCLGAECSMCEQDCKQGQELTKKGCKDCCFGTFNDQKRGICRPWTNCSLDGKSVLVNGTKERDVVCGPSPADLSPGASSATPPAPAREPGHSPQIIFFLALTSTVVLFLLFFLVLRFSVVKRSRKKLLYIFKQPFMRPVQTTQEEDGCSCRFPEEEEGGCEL

Binder	EC50 [1] [nM]	EC50 [2] [nM]	EC50 [3] [nM]	Kd [4] [nM]	koff [4] [s⁻¹]	kon [4] [M⁻¹ s⁻¹]	Kd [5] [nM]	koff [5] [s⁻¹]	kon [5] [M⁻¹ s⁻¹]	EC50 [6] [nM]	EC50 [7] [nM]	EC50 [nM] With RKO cells (CD137 Bioassay, NFκB-luc2/CD137 Jurkat luminescence) [8] [nM]	EC50 [9] [nM]	EC50 [nM] (PD-1/PD-L1 blockade bioassay, NFAT-RE-mediated luminescence) [10]
fusion protein SEQ ID NOs: 86 and 91 (bispecific antibody, human IgG4 S228P, kappa, F234A L235A, Antibody-lipocalin mutein fusion, IgG4 S228P backbone; Bivalent to CD137) heavy: not shown light: EIVLTQSPDTLSVTPKEKVTLTCRASQSIGTNIHWFQQKPGQSPKLLIKYASESISGVPSRFSGSGSGTDFTLTINSVEAEDAATYYCQQSNSWPYTFGQGTKLEIKRTVAAPSVFIFPPSDEQLKSGTASVVCLLNNFYPREAKVQWKVDNALQSGNSQESVTEQDSKDSTYSLSSTLTLSKADYEKHKVYACEVTHQGLSSPVTKSFNRGECGGGGSGGGGSGGGGSQDSTSDLIPAPPLSKVPLQQNFQDNQFHGKWYVVGQAGNIRLREDKDPIKMMATIYELKEDKSYDVTMVKFDDKKCMYDIWTFVPGSQPGEFTLGKIKSFPGHTSSLVRVVSTNYNQHAMVFFKFVFQNREEFYITLYGRTKELTSELKENFIRFSKSLGLPENHIVFPVPIDQCIDG	0.59	6.48	3.3	0.568	0.000748	1.32e+06	5.11	0.000175	34200	1.41	39.1	0.0889	–	–
fusion protein SEQ ID NOs: 90 and 87 (bispecific antibody, human IgG4 S228P, kappa, F234A L235A, Bivalent to CD137) heavy: not shown light: EIVLTQSPDTLSVTPKEKVTLTCRASQSIGTNIHWFQQKPGQSPKLLIKYASESISGVPSRFSGSGSGTDFTLTINSVEAEDAATYYCQQSNSWPYTFGQGTKLEIKRTVAAPSVFIFPPSDEQLKSGTASVVCLLNNFYPREAKVQWKVDNALQSGNSQESVTEQDSKDSTYSLSSTLTLSKADYEKHKVYACEVTHQGLSSPVTKSFNRGEC	–	3.74	2.9	0.592	0.000769	1.3e+06	6.48	0.000255	39300	4.48	51.4	0.0809	0.58	0.49
